# Measured values as given in patent US10391180B2, “Self-assembling complex for targeting chemical agents to cells” (CEDARS-SINAI MEDICAL CENTER, priority 2007, dated 2019).
# B1: HerDox: non-covalent complex of HerPBK10, a small double-stranded nucleic acid and intercalated Dox (conjugate)
# chain: LPPRLKEMKSQESAAGSKLVLRCETSSEYSSLRFKWFKNGNELNRKNKPQNIKIQKKPGKSELRINKASLADSGEYMCKVISKLGNDSASANITIVESNEIITGMPASTEGAYVSSESPIRISVSTEGANTSSSTSTSTTGTSHLVKCAEKEKTFCVNGGECFMVKDLSNPSRYLCKCQPGFTGARCTENVPMKVQNQEKAEELYMRRAAMYEEGPPPSYESVVSAAPVAAALGSPFDAPLDPPFVPPRYLRPTGGRNSIRYSELAPLFDTTRVYLVDNKSTDVASLNYQNDHSNFLTTVIQNNDYSPGEASTQTINLDDRSHWGGDLKTILHTNMPNVNEFMFTNKFKARVMVSRLPTKDNQVELKYEWVEFTLPEGNYSETMTIDLMNNAIVEHYLKVGRQNGVLESDIGVKFDTRNFRLGFDPVTGLVMPGVYTNEAFHPDIILLPGCGVDFTHSRLSNLLGIRKRQPFQEGFRITYDDLEGGNIPALLDVDAYQASLKDDTEQGGGGAGGSNSSGSGAEENSNAAAAAMQPVEDMNDHAIRGDTFATRAEEKRAEAEAAAEAAAPAAQPEVEKPQKKPVIKPLTEDSKKRSYNLISNDSTFTQYRSWYLAYNYGDPQTGIRSWTLLCTPDVTCGSEQVYWSLPDMMQDPVTFRSTRQISNFPVVGAELLPVHSKSFYNDQAVYSQLIRQFTSLTHVFNRFPENQILARPPAPTITTVSENVPALTDHGTLPLRNSIGGVQRVTITDARRRTCPYVYKALGIVSPRVLSSRTFKKKKKKKKKK
# modifications: left off: small tags and cut ends
# notes: non-covalent complex of HerPBK10, a small double-stranded nucleic acid and intercalated Dox
# Tests used:
# Format in all cases: cell-based
# [1] = test system: MDA-MB-435 (non-GFP, HER2+) cells; assay: Targeting in a mixed cell culture; details: HerDox containing 0.5 uM Dox, day 2
# Protocol: (§1) FIGS. 9 (A)-(C) illustrates targeting in a mixed cell culture. As illustrated in FIG. 10 (A), equal numbers of MDA-MB-435 and GFP(+) MDA-MB-231 cells were treated with Dox alone (0.5 uM), Her-Dox (containing 0.5 uM Dox), or HerPBK10 (1.2 ug/well, equivalent to HerPBK10 in HerDox). Wells were assayed for GFP fluorescence (to determine relative MDA-MB-231 number) and crystal violet staining (to determine total cell number). As illustrated in FIG. 9 (B), cell survival was determined by calculating the relative doubling time (DT) of experimental (exp) cells normalized by control (con) cells based on the crystal violet stains (total cells) and GFP fluorescence (MDA-MB-231 cells). The DT of MDA-MB-435 was determined by subtracting the DT of MDA-MB-231 from the total cell DT. Relative survival is shown for Day 2 of treatment. As illustrated in FIG. 9 (C), there is stability in cell culture. Aliquots of culture media containing HerDox (after incubation for the indicated times at 37° C.) were electrophoresed on a 2% agarose gel. HerDox incubated at 37° C. in HEPES-buffered saline, lacking serum, was processed in parallel. Dox fluorescence was visualized by UV excitation. Free Dox (Dox alone) is not retained in the gel whereas Dox incorporated in HerDox is. […]
# [2] = test system: GFP(+) MDA-MB-231 (HER2−) cells; assay: Targeting in a mixed cell culture; details: HerDox containing 0.5 uM Dox, day 2
# Protocol: as §1
# T47D = assay: Cytotoxicity on cell lines (Table I); details: 50% reduction in cell survival, mean ± 1 SD, read-out: EC50** (uM HerDox)
# Protocol: (§2) FIGS. 17 (A)-(B) illustrates relative cell surface HER subunit levels and cytotoxicity on cell types. FIG. 17 (A) depicts a graph of relative cell surface HER subunit levels as measured by ELISA. Cells were incubated with anti-HER subunit antibodies followed by HRP-conjugated secondary antibodies using standard procedures. Relative cell numbers were measured by crystal violet staining and quantified by measuring crystal violet absorbance at 590 nm. Relative subunit levels are reported as the ELISA signal of each cell population normalized by the relative cell number, or Abs 450 run/590 nm. FIG. 17 (B) depicts toxicity to cells displaying differential HER2. Cytotoxicities from a range of HerDox doses were assessed on each cell line by metabolic assay and confirmed by crystal violet stain. CD50 values shown in log scale were determined by non-linear regression analyses of HerDox dose curves using a scientific graphing program and confirmed using a calculator. The relative HER2 level of each cell line is shown next to each CD50 value.
# MDA-MB-435 = assay: Cytotoxicity on cell lines (Table I); details: 50% reduction in cell survival, mean ± 1 SD, read-out: EC50** (uM HerDox)
# Protocol: as §2
# SKOV3 = assay: Cytotoxicity on cell lines (Table I); details: 50% reduction in cell survival, mean ± 1 SD, read-out: EC50** (uM HerDox)
# Protocol: as §2
# MDA-MB-435 (HER2+) cells = assay: Targeted toxicity, MTT assay, separate dishes; details: 0.5 uM Dox conc, 4 h exposure, by three days
# Protocol: (§3) FIG. 7 illustrates targeted toxicity. Each cell line was exposed to HerDox (0.5 uM Dox cone), Dox alone (0.5 uM), or HerPBK10 alone for 4 h at 37° C. in complete (i.e. serum-containing) media, followed by aspiration to remove free conjugate, and addition of fresh medium while cells are grown continuously. Cell titer was determined by metabolic (i.e. MTT) assay. FIG. 7 upper panel illustrates the effect of HerDox on MDA-MB-231 (HER2−) and MDA-MB-435 (HER2+) cell survival. Relative surviving cell numbers are represented as a % of corresponding untreated cells. FIG. 7 lower panel illustrates comparison of HerDox, Dox alone, or HerPBK10 alone on HER2− and HER2+ cell survival. Relative survival (as % of untreated cells) is shown for Day 3 of treatment.
# (§4) The inventors compared the effect of HerDox or Dox alone at equivalent dosages (0.5 uM with respect to Dox concentration) on HER2+ and HER2− breast cancer cells in separate dishes. By three days, HerDox reduced HER2+ cell numbers by over 75% whereas HER2− cell survival was unaffected (FIG. 7). […] These findings emphasize the importance of targeting by showing that the untargeted drug affects nontarget (i.e. HER2−) cells. Importantly, the protein carrier, HerPBK10, alone at the equivalent concentration of protein in HerDox (0.1 uM) had no effect on either cell line (FIG. 7), including a lack of proliferation induction. To test receptor targeting, the inventors used free heregulin ligand (Her or eHRG) as a competitive inhibitor. […] As a final in vitro challenge, the inventors tested whether HerDox induces toxicity specifically to HER2+ cells in a mixed culture of HER2+ and HER2− breast cancer cells. To do this, the inventors produced a HER2− cell line tagged with green fluorescent protein (GFP) for cell identification in the mixed culture (FIG. 9 (A)). […] Altogether, these findings indicate that HerDox has the capacity to preferentially target toxicity to HER2+ cells. […] Moreover, the preferential cell killing of HER2+ cells in a mixed culture of HER2+ and HER2− cells implies that after death and lysis of the target cells, the Dox released into those cells is incapable of continuing to induce toxicity to HER2− cells. To further confirm the stability of HerDox in cell culture, HerDox was recovered from culture media in separate experiments at indicated time points and electrophoresed on an agarose gel, which was then illuminated by UV to detect Dox and stained with Coomassie blue to detect HerPBK10 protein (FIG. 9 (C)). […] Co-migration of HerPBK10 bands further verified that the conjugates remained intact in the cell media.
# MDA-MB-231 (HER2−) cells = assay: Targeted toxicity, MTT assay, separate dishes; details: HerDox/Dox 0.5 uM Dox; HerPBK10 0.1 uM; day 3
# Protocol: as §3, §4
molecule,measurement,setting,value
B1,non-GFP (HER2+) cell proliferation in mixed culture,[1],nearly completely reduced
same,GFP (HER2−) cell growth in mixed culture,[2],not altered
same,EC50,T47D,0.64 ± 0.04 µM
same,EC50,MDA-MB-435,0.74 ± 0.07 µM
same,EC50,SKOV3,0.18 ± 0.03 µM
same,reduction of HER2+ cell numbers,MDA-MB-435 (HER2+) cells,over 75%
same,effect on HER2− cell survival,MDA-MB-231 (HER2−) cells,unaffected
